From patent publication US20230287598A1

Target: Kv1.3 (human (T-cells from human blood donors)) (UniProt P22001)
Test: cell-based or functional assay

Kv1.3 (human (T-cells from human blood donors)), sequence (P22001 whole entry): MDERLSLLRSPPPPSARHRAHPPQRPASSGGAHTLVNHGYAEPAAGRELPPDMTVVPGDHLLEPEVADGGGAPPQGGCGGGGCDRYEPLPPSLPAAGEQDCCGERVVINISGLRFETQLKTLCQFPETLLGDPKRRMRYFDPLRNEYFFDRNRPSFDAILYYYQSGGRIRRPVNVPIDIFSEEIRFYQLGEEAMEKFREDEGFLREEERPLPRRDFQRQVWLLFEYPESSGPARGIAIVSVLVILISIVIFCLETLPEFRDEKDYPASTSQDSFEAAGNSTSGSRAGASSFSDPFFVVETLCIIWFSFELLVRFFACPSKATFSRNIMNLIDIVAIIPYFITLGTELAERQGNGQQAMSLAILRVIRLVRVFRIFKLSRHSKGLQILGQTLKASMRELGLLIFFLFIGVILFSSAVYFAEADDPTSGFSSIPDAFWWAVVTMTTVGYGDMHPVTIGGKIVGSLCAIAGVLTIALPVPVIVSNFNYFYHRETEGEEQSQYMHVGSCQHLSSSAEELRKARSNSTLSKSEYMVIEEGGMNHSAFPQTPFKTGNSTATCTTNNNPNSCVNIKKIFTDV

Substance: BLV1H12 GLLV 3xG4S OSK1 (K16,D20) (antibody)
- TNF-α ELISA (A450), Donor 1, 6 nM IgG: 0.641 A450
- TNF-α ELISA (A450), Donor 1, 17 nM IgG: 0.698 A450
- TNF-α ELISA (A450), Donor 1, 50 nM IgG: 0.556 A450
- TNF-α ELISA (A450), Donor 1, 150 nM IgG: 0.253 A450
- TNF-α ELISA (A450), Donor 2, 6 nM IgG: 0.096 A450
- TNF-α ELISA (A450), Donor 2, 17 nM IgG: 0.094 A450
- TNF-α ELISA (A450), Donor 2, 50 nM IgG: 0.075 A450
- TNF-α ELISA (A450), Donor 2, 150 nM IgG: 0.027 A450
- TNF-α ELISA (A450), Donor 3, 6 nM IgG: 0.159 A450
- TNF-α ELISA (A450), Donor 3, 17 nM IgG: 0.144 A450
- TNF-α ELISA (A450), Donor 3, 50 nM IgG: 0.102 A450
- TNF-α ELISA (A450), Donor 3, 150 nM IgG: 0.029 A450

Substance: BLV1H12 GLLV 3xG4S OSK1 (P12,K16,D20) (antibody)
- TNF-α ELISA (A450), Donor 1, 6 nM IgG: 0.666 A450
- TNF-α ELISA (A450), Donor 1, 17 nM IgG: 0.651 A450
- TNF-α ELISA (A450), Donor 1, 50 nM IgG: 0.58 A450
- TNF-α ELISA (A450), Donor 1, 150 nM IgG: 0.171 A450
- TNF-α ELISA (A450), Donor 2, 6 nM IgG: 0.121 A450
- TNF-α ELISA (A450), Donor 2, 17 nM IgG: 0.108 A450
- TNF-α ELISA (A450), Donor 2, 50 nM IgG: 0.097 A450
- TNF-α ELISA (A450), Donor 2, 150 nM IgG: 0.037 A450
- TNF-α ELISA (A450), Donor 3, 6 nM IgG: 0.191 A450
- TNF-α ELISA (A450), Donor 3, 17 nM IgG: 0.168 A450
- TNF-α ELISA (A450), Donor 3, 50 nM IgG: 0.122 A450
- TNF-α ELISA (A450), Donor 3, 150 nM IgG: 0.037 A450
